The values that follow come from patent US20090060919A1 (AstraZeneca / MedImmune, published 2009).

Assay [1] addresses T1, human IgEλ (U266 derived) (human, UniProt P01854-1 1-428).
T1 construct: Whole IgE purified from U266 cells (Ikeyama et al. 1986); labelled with europium cryptate or biotin in some assays; also called human IgE (U266-derived); human IgE lambda
Nature of the assay: HTRF competition: scFv against Eu-cryptate human IgE binding to human FcεRI-Fc; geomean.

In assay [2] the target is T1, human IgEλ (U266 derived). As to the kind of experiment: cell-based or functional assay.
The target of assay [3] is recombinant chimaeric cynomolgus IgE (D12 variable regions, cynomolgus IgE constant region) (cynomolgus monkey). Nature of the assay: cell-based or functional assay.
recombinant chimaeric cynomolgus IgE (D12 variable regions, cynomolgus IgE constant region) (cynomolgus monkey), sequence (heavy, as listed by the source limits assumed, chain 1 of 2): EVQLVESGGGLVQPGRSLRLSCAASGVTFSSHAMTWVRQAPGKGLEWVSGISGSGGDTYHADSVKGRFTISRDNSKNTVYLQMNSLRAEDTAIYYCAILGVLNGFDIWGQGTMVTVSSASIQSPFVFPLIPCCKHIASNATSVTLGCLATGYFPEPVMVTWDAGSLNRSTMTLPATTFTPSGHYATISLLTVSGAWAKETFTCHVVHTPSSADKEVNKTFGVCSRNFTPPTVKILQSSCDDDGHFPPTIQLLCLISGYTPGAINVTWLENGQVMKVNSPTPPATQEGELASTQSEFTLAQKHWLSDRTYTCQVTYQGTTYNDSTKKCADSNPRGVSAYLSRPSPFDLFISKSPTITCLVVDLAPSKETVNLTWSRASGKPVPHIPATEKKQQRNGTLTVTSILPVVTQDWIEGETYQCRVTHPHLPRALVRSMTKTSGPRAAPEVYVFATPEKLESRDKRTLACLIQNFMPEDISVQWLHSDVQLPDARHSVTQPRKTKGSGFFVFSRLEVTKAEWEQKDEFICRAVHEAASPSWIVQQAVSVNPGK
recombinant chimaeric cynomolgus IgE (D12 variable regions, cynomolgus IgE constant region) (cynomolgus monkey), sequence (light, as listed by the source limits assumed, chain 2 of 2): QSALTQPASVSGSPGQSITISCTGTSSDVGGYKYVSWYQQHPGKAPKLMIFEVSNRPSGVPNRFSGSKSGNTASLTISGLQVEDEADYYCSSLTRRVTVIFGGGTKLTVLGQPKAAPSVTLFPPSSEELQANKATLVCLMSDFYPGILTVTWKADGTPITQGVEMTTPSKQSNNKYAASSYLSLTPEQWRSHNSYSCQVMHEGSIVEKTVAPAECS
The target of assay [4] is T1, human IgEλ (U266 derived). Nature of the assay: flow cytometry: inhibition of IgE binding to CD23 on IM9 cells.
Experimental: Antibodies were evaluated for inhibition of the IgE/CD23 interaction. […] In brief, titrations of the test IgG were mixed with IgE prior to incubation with 1M9 cells.
Assay plates were incubated on ice for 20 minutes in the dark before centrifuging at 2000 rpm for 2 minutes and washing with 2×200 uL of Flow buffer as described above. Cells were resuspended in 100 uL Cell Fix (BD biosciences) and analysed using a FACSCalibur (BD Biosciences) to detect FL2 staining.
Assay [5] concerns the target T1, human IgEλ (U266 derived). Nature of the assay: cell-based or functional assay. The source holds these as a separate data set.
The target of assay [6] is T1, human IgEλ (U266 derived). Nature of the assay: SPR (BIAcore 2000): IgG captured on protein G', IgE as analyte, bivalent analyte model; geomean.
Experimental: (§1) In brief, Protein G′ (Sigma Aldrich, P4689) was covalently coupled to the surface of a CM5 sensor chip using standard amine coupling reagents according to manufacturer's instructions (BIAcore). […] The resulting sensorgrams were evaluated using BIA evaluation 3.1 software and fitted to a bivalent analyte model, to provide relative binding data.
Assay [7] has as its target T2, human IgE (human, UniProt P01854-1 1-428).
T2 construct: lead-isolation RBL-ER51 assays: Calbiochem or U266-derived; also called IgE (Calbiochem or U266-derived); purified human IgE
As to the kind of experiment: KinExA.

Assay [8] deals with T2, human IgE. Nature of the assay: cell-based or functional assay.
In assay [9] the target is T1, human IgEλ (U266 derived). Nature of the assay: SPR (BIAcore 2000): IgG captured on protein G', IgE as analyte, bivalent analyte model; geomean. This is another data set of the same source.
Experimental: as §1
A further assay has as its target T3, IgE in human serum (human, UniProt P01854-1 1-428).
T3 construct: also called IgE in serum; free IgE
Nature of the assay: ELISA: free serum IgE captured on coated FcERI-Fc-His after mixing serum with antibody; representative experiment.

Positions count from the first letter of the chain named. Where two headings read alike, the source gives them in different places.

T2 sequence (P01854 other isoform, or with tags, fused parts or gaps): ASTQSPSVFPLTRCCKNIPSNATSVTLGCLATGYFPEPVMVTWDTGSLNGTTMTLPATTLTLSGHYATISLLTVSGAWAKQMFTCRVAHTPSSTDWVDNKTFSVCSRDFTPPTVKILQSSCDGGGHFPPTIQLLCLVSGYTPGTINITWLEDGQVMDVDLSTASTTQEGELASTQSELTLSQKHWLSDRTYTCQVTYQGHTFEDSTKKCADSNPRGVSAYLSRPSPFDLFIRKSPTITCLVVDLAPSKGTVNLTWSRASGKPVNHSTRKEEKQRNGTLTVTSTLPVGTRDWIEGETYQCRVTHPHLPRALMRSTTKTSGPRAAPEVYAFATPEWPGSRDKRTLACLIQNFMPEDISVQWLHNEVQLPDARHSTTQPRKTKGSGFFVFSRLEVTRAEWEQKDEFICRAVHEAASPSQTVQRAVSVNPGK
T1 sequence (P01854 other isoform, or with tags, fused parts or gaps): as above
T3 sequence (P01854 other isoform, or with tags, fused parts or gaps): as above
Experimental for IgE in human serum: Serum samples were prepared from blood samples from human donors. […] To reduce background binding, plates were subsequently incubated with 200 μl/well of block buffer consisting of PBS containing 0.5% BSA, incubated at room temperature for 2 hours, and washed three times with PBST as described above. […] The plates were sealed and samples incubated at room temperature for 2 hours. To remove unbound sample, plates were washed three times with PBST as described. […] The plates were then sealed again, and incubated for 1 hour at room temperature. […] The conjugate was diluted 1:25000 in PBST, 150 μl added per well, the plates sealed, and incubated for 1 hour at room temperature. The plates were then washed three times with PBST as described. TMB-substrate solution (DAKO Substrate-Chromogen, No. S1599), 150 μl/well, was then added to each well and the plates incubated for 10 minutes at room temperature.

B1: Antibody 6 scFv (scFv, V domains shown)
VH: QVQLVQSGAEVKKPGATVKLSCKVYGYIFTDYNIYWVRQAPGKGLEWMGLIDPDNGETFYAEKFQGRATMTADTSSDRAYMELTSLTFEDTATYYCATVMGKWIKGGYDYWGRGTLVTVSS
VL: QSVLTQPPSVSGAPGQRVTISCTGSSSNIGAGYDVHWYQQLPGTAPKLLIYDNFNRPSGVPDRFSGSKSGTSASLAIIGLQTEDEADYYCQSYDSTMRHGPFGTGTKLTVL
notes: Purified scFv, non-germlined; not shown: scFv linker and any tags; the libraries are only cited to Vaughan et al. 1996
Regarding B1, in [1], the half-maximal inhibitory concentration (IC50) stood at 3 nM.

B2: Antibody 21 IgG (antibody, V domains shown)
VH: B1 VH with M100T, G101L, W103S, I104A
VL: B1 VL with T96S, M97S, R98Q, H99L, G100S
As for B2, the “RBL-ER51 calcium signalling IC50 (Geomean), Human IgE” value in assay [2] was found to be 0.306 nM. In addition, in assay [3], the “RBL-ER51 calcium signalling IC50 (Geomean), Cynomolgus IgE” value stood at 3.58 nM.

B3: Antibody 1 IgG (antibody, V domains shown)
VH: B1 VH with M100L, G101H, K102R, W103R, I104L
VL: B1 VL with T96S, M97L, R98S, H99G, G100S, P101L
notes: IgG1 or IgG2 vectors named; also called parent antibody
In turn, B3 showed an IC50 in [4] of 16 nM.

B4: Antibody 11 GL IgG (antibody, V domains shown)
VH: B1 VH with Q1E, L20I, T84S, T87R, T93V
VL: B1 VL with I78T, T82A, T96P, M97T, R98L, H99T, G100S
notes: Germlined IgG
On to B4, for which the “RBL-ER51 calcium signalling IC50 (Geomean), Human IgE” value in assay [5] was 0.084 nM. In addition, the Kd in [6] was found to be 1.5 nM.

B5: Antibody 8 GL IgG (antibody, V domains shown)
VH: B1 VH with Q1E, L20I, T84S, T87R, T93V, M100L, K102R
VL: B1 VL with I78T, T82A, T96P, M97T, R98H, H99T, G100S
notes: Germlined IgG
B5: the “RBL-ER51 calcium signalling IC50 (Geomean), Human IgE” value in assay [5] is 0.085 nM. In assay [6], this molecule came in with a Kd of 2.5 nM.

B6: Antibody 26 IgG (antibody, V domains shown)
VH: B1 VH with M100S, G101L, W103E, I104A
VL: B1 VL with T96A, M97S, G100A
Take B6: the “RBL-ER51 calcium signalling IC50 (Geomean), Human IgE” value in [2] is 0.398 nM. In assay [3], the “RBL-ER51 calcium signalling IC50 (Geomean), Cynomolgus IgE” value stood at 5.1 nM.

B7: Antibody 22 IgG (antibody, V domains shown)
VH: B1 VH with M100T, G101L, W103S, I104A
VL: B1 VL with T96S, M97G, R98G, H99Y, G100A
For B7, the “RBL-ER51 calcium signalling IC50 (Geomean), Human IgE” value in assay [2] worked out at 0.262 nM. Moreover, in [3], the “RBL-ER51 calcium signalling IC50 (Geomean), Cynomolgus IgE” value amounted to 2.66 nM.

B8: Antibody 11 IgG (antibody, V domains shown)
VH: B1 VH
VL: B1 VL with T96P, M97T, R98L, H99T, G100S
notes: Whole human IgG (section 1.4: IgG1)
B8: the Kd is 0.0063 nM in the assay with human IgE [7] and 1.6 nM in [9]. Further, the “induction of IgE positive human B cells (intracellular IgE, flow cytometry), IC50” value with human IgE [8] worked out at 1.6 nM. The “β-hexosaminidase release of LAD2 mast cells, IC50” value in the assay with human IgE [8] worked out at 0.04 nM. In addition, the “RBL-ER51 calcium signalling IC50 (Geomean), Human IgE” value in [2] stood at 0.069 nM. The concentration for half-maximal inhibition (IC50) in assay [4] worked out at 23 nM; in the assay with IgE in human serum, 0.202 nM.

B9: Antibody 12 scFv (scFv, V domains shown)
VH: B1 VH
VL: B1 VL with T96S, M97I, R98D, G100S
notes: Purified scFv, non-germlined
On to B9, for which the IC50 in [1] was 3 nM.

B10: Antibody 8 IgG (antibody, V domains shown)
VH: B1 VH with M100L, K102R
VL: B1 VL with T96P, M97T, R98H, H99T, G100S
notes: as for B8
In the case of B10, the “RBL-ER51 calcium signalling IC50 (Geomean), Human IgE” value in assay [2] came out at 0.112 nM. Also, the half-maximal inhibitory concentration (IC50) in assay [4] came to 16.5 nM. Besides, in assay [9], the Kd is 2.6 nM.

B11: Antibody 13 scFv (scFv, V domains shown)
VH: B1 VH
VL: B1 VL with T96N, M97I, R98L, H99Y, G100S
notes: Purified scFv, non-germlined
In assay [1], B11 registered a half-inhibitory concentration (IC50) of 2 nM.
